In paper PMC6497303, “Molecular understanding of calcium permeation through the open Orai channel” (PLoS Biology, 2019):

Target: the molecule itself
Assay: crystal structure; purified dOrai-P288L in NG/NM detergent with POPC:POPE:POPG lipid, sitting drop, 17°C, sodium citrate pH 6.5, PEG400; 4.5 Å; 2 hexamers in each asymmetric unit

B1: Drosophila melanogaster Orai (dOrai) mutant (P288L) channel, amino acids 132 to 341 with C224S, C283T and P288L (domain or fragment, UniProt Q9U6B8 132-341, looked up)
chain: SMSQSGEDLHSPTYLSWRKLQLSRAKLKASSKTSALLSGFAMVAMVEVQLDHDTNVPPGMLIAFAICTTLLVAVHMLALMISTCILPNIETVSNLHSISLVHESPHERLHWYIETAWAFSTLLGLILFLLEIAILCWVKFYDLSPPAAWSATVVLILVMIIFMAFAIHFYRSLVSHKYEVTVSGIRELEMLKEQMEQDHLEHHNNIRNNG
notes: Orai, Drosophila melanogaster, UniProt Q9U6B8, residues 132 to 341 with C224S, C283T and P288L; codons optimised for Homo sapiens; PreScission site between Orai and eGFP; residues of the site may be left after 3C cleavage; also called dOrai-P288L; dOrai-P288L channel; not shown: eGFP, C-terminal, cleaved
- stoichiometry N: 6
